Results reported in the supplement of paper PMC7877785.
± gives the uncertainty stated by the source.

Assay: self-splicing fitness, log relative to wild type (ln ratio); higher = more splicing; Tetrahymena group I intron in knt gene, E. coli kanamycin selection, DiMSum; sequences stand for … in CUCUCU…GGAGGGAAAAGUUAUCAGGCAUGCACCUGGUAGCUAGUCUUUAAACCAAUAGAUUGCAUCGGUUUAAAAGGCAAGACCGUCAAAUUGCGGGAAAGGGGUCAACAGCCGUUCAGUACCAAGUCUCAGGGGAAACUUUGAGAUGGCCUUGCAAAGGGUAUGGUAAUAAGCUGACGGACAUGGUCCUAACCACGCAGCCAAGUCCUAAGUCAACAGAUCUUCUGUUGAUAUGGAUGCAGUUCACAGACUAAAUGUCGGUCGGGGAAGAUGUAUUCUUCUCAUAAGAUAUAGUCGGACCUCUCCUUAAUGGGAGCUAGCGGAUGAAGUGAUGCAACACUGGAGCCGCUGGGAACUAAUUUGUAUGCGAAAGUAUAUUGAUUAGUUUUGGAGUACUCGUGGUCG
Summary of the method: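 DiMSum derived fitness as the error-weighted combination of fold changes across replicates, kanamycin versus no kanamycin, normalised to wild type. E. coli BL21(DE3) held the library, which randomised all eight P1ex-region intron nucleotides within the knt kanamycin-resistance gene on pET-22b(+). Six replicate transformations grew overnight at 37°C or 30°C on LB agar with or without 25 μg/mL kanamycin, also containing 100 μg/mL carbenicillin, 50 μM IPTG and 0.2% rhamnose, and pooled colonies were amplicon-sequenced on an Illumina HiSeq 2500.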

| Sequence | self-splicing fitness (ln) (30 °C) | self-splicing fitness (ln) (37 °C) |
| --- | --- | --- |
| AGCAAGCAAUAUUACGAGUA | -1.67 ± 0.12 | -0.688 ± 0.12 |
| AGCAAGCAAUAUUACGAUCU | -0.189 ± 0.052 | 0.631 ± 0.077 |
| AGCAAGCAAUAUUACGAUGA | -1.33 ± 0.085 | -0.569 ± 0.088 |
| AGCAAGCAAUAUUACGCCAG | -2.09 ± 0.2 | -2.65 ± 0.44 |
| AGCAAGCAAUAUUACGCCGU | -1.05 ± 0.11 | -0.892 ± 0.11 |
| AGCAAGCAAUAUUACGCGUA | -1.83 ± 0.083 | -0.167 ± 0.085 |
| AGCAAGCAAUAUUACGCGUC | -3.61 ± 0.15 | -3.06 ± 0.24 |
| AGCAAGCAAUAUUACGCUAA | -2.93 ± 0.2 | -1.69 ± 0.16 |
| AGCAAGCAAUAUUACGCUAC | -3.82 ± 0.29 | -3.16 ± 0.4 |
| AGCAAGCAAUAUUACGGAAC | -3.49 ± 0.43 | -2.04 ± 0.18 |
| AGCAAGCAAUAUUACGGAUC | -2.73 ± 0.17 | -1.08 ± 0.16 |
| AGCAAGCAAUAUUACGGUAA | -2.53 ± 0.17 | -1.38 ± 0.12 |
| AGCAAGCAAUAUUACGUAGC | -3.34 ± 0.18 | -2.45 ± 0.19 |
| AGCAAGCAAUAUUACGUGUA | -2.19 ± 0.07 | -1.49 ± 0.072 |
| AGCCAGCAAUAUUACGAAGU | -4.11 ± 0.22 | -1.75 ± 0.12 |
| AGCCAGCAAUAUUACGAAUG | – | -2.45 ± 0.28 |
| AGCCAGCAAUAUUACGACUA | -1.99 ± 0.14 | -1.5 ± 0.14 |
| AGCCAGCAAUAUUACGAGUG | -3.63 ± 0.2 | -2.13 ± 0.14 |
| AGCCAGCAAUAUUACGAUAC | -3.73 ± 0.14 | -3.14 ± 0.14 |
| AGCCAGCAAUAUUACGAUGA | -3.75 ± 0.29 | -2.35 ± 0.24 |
| AGCCAGCAAUAUUACGAUGG | -4.33 ± 0.26 | -2.28 ± 0.19 |
| AGCCAGCAAUAUUACGCAAU | -3.25 ± 0.2 | -1.35 ± 0.17 |
| AGCCAGCAAUAUUACGCCAA | -3.36 ± 0.19 | -1.75 ± 0.17 |
| AGCCAGCAAUAUUACGCCUA | -2.14 ± 0.25 | -1.07 ± 0.23 |
| AGCCAGCAAUAUUACGCCUU | -1.59 ± 0.16 | -0.556 ± 0.2 |

| Sequence | self-splicing fitness (ln) (30 °C) | self-splicing fitness (ln) (37 °C) |
| --- | --- | --- |
| AGCCAGCAAUAUUACGCGCA | -0.445 ± 0.061 | 0.255 ± 0.074 |
| AGCCAGCAAUAUUACGCGCG | -1.15 ± 0.075 | -0.281 ± 0.076 |
| AGCCAGCAAUAUUACGCGGG | -3.29 ± 0.19 | -2.91 ± 0.28 |
| AGCCAGCAAUAUUACGGAGC | -2.39 ± 0.1 | -1.83 ± 0.11 |
| AGCCAGCAAUAUUACGGCGG | -2 ± 0.1 | -1.1 ± 0.15 |
| AGCCAGCAAUAUUACGGGCA | -1.78 ± 0.14 | -0.459 ± 0.13 |
| AGCCAGCAAUAUUACGGGUU | -3.25 ± 0.15 | -3.81 ± 0.25 |
| AGCCAGCAAUAUUACGGUAA | -1.23 ± 0.069 | -0.323 ± 0.074 |
| AGCCAGCAAUAUUACGGUUC | -4.47 ± 0.19 | -3.66 ± 0.27 |
| AGCCAGCAAUAUUACGGUUU | -3.43 ± 0.2 | -2.04 ± 0.18 |
| AGCCAGCAAUAUUACGUACC | -2.95 ± 0.25 | -0.263 ± 0.13 |
| AGCCAGCAAUAUUACGUACG | -3.04 ± 0.17 | -2.65 ± 0.17 |
| AGCCAGCAAUAUUACGUCUG | -4.62 ± 0.25 | -1.94 ± 0.17 |
| AGCCAGCAAUAUUACGUGAG | -2.79 ± 0.1 | -0.902 ± 0.11 |
| AGCCAGCAAUAUUACGUUUG | -3.47 ± 0.13 | -3.22 ± 0.23 |
| AGCGAGCAAUAUUACGAAAU | -2.79 ± 0.23 | -2.39 ± 0.42 |
| AGCGAGCAAUAUUACGACAC | -1.34 ± 0.34 | – |
| AGCGAGCAAUAUUACGAGAU | -4.2 ± 0.3 | -2.15 ± 0.19 |
| AGCGAGCAAUAUUACGAUGA | -2.57 ± 0.44 | – |
| AGCGAGCAAUAUUACGCCAU | -4.12 ± 0.46 | -1.58 ± 0.18 |
| AGCGAGCAAUAUUACGCCCU | -1.34 ± 0.35 | -0.0906 ± 0.22 |
| AGCGAGCAAUAUUACGCCUA | -1.67 ± 0.18 | -1.89 ± 0.2 |
| AGCGAGCAAUAUUACGCCUC | -1.82 ± 0.3 | – |
| AGCGAGCAAUAUUACGCGCU | -1.6 ± 0.23 | – |
